Columns and labels:
[1] = Heterologous xylose isomerase expression in yeast (active yes/no); type: cell-based, Saccharomyces cerevisiae; conditions: xylose isomerase of donor organism expressed in engineered yeast (S. cerevisiae)
[2] = EDA activity assay with saturating amounts of E. coli expressed EDD extract; type: biochemical, Saccharomyces cerevisiae
Method: Grow 5 ml LB-Kan preps of BF1055 (BL21/DE3 with pET26b empty vector) and BF1706 (BL21DE3 with pET26b+E. coli EDD).
Grow 50 ml LB-Kan prep of BF1055, 2% (v/v) inoculate.
Grow 50 ml prep of BF1706 using Novagen's Overnight Express (46.45 ml LB-Kan, 1 ml solution 1, 2.5 ml solution 2, 50 μl solution 3, 5 μl of 1M MnCl2, 50 μl of 0.5 M FeCl2), 2% (v/v) inoculate.
Inoculate to OD600 of 0.2.
EDD extractions (adapted from Chemyan et al, Protein Science 16:2368-2377, 2007): • 1) Pellet cells in 50 ml conical tubes, 4° C., 3,000 rpm, 10 mins, discard supernatant. • 2) Resuspend in 2 ml degassed PDGH buffer (20 mM MES pH 6.5, 30 mM NaCl, 5 mM MnCl2, 0.5 mM FeCl2, 10 mM 2-mercaptoethanol, 10 mM cysteine, sparged with nitrogen gas). Move to hungate tube. • 3) Add 0.1% Triton X-100, 10 ng/ml DNase, 10 μg/ml PMSF, 10 μg/ml TAME (Nα-(p-toluene sulfonyl)-L-arginine methyl ester), 100 μg/ml lysozyme. • 4) Sparge hungate tube with nitrogen gas, cap and seal. Incubate 2 hours at 37° C., swirl occasionally. • 5) Clarify by centrifugation in 2-ml tube, 4° C., 10 mins, 14,000 rpm. Keep supernatant. • 6) Treat with 150 mM pyruvate and 10 mM sodium cyanoborohydride (work in hood) to inactivate aldolase activity. Incubate 30 mins at room temperature. • 7) During incubation, pre-equilibrate PD-10 column from GE • a. Remove top cap, pour off storage buffer. • b. Cut off bottom tip, fit in 50 ml conical with adapter. • c. Pour 5 ml of 20 mM MES buffer, pH 6.5 (total of 5 times). Discard flow-through. • 8) Run sample through column, then add MES buffer to a total of 2.5 ml volume added. Discard flow-through. • 9) Run 3.5 ml 20 mM MES pH 6.5 buffer to elute protein. Discard column in appropriate waste receptacle. • 10) Perform Bradford assay (1:10 or 1:20 dilution). […]
Each reaction contains 50 mM Tris-HCl, pH 7, 10 mM MgCl2, 0.15 mM NADH, 15 μg LDH, saturating amounts of EDD determined empirically (usually ˜100 μg), 1-50 μg EDA (depending on level of activity), and 1 mM 6-phosphogluconate. Reactions are started by the addition of 6-phosphogluconate and monitored for 5 mins at 30° C.

[3] = Xylose isomerase activity assay (sorbitol dehydrogenase/NADH coupled, Kuyper et al.), soluble whole cell extract; type: biochemical, Saccharomyces cerevisiae

Molecule	Active? (yes/no) [1]	further results
Actinoplanes missouriensis: xylose isomerase of this donor organism, expressed in S. cerevisiae	No	
Bacteroides thetaiotaomicron: xylose isomerase of this donor organism, expressed in S. cerevisiae	Yes	
Streptomyces rubiginosus: xylose isomerase of this donor organism, expressed in S. cerevisiae	No	
Thermus thermophilus: xylose isomerase of this donor organism, expressed in S. cerevisiae	Yes	
EDA-E. coli: 2-keto-3-deoxygluconate-6-phosphate aldolase (eda) of E. coli (protein, UniProt P0A955 1-213, looked up) KHG/KDPG aldolase: MKNWKTSAESILTTGPVVPVIVVKKLEHAVPMAKALVAGGVRVLEVTLRTECAVDAIRAIAKEVPEAIVGAGTVLNPQQLAEVTEAGAQFAISPGLTEPLLKAATEGTIPLIPGISTVSELMLGMDYGLKEFKFFPAEANGGVKALQAIAGPFSQVRFCPTGGISPANYRDYLALKSVLCIGGSWLVPADALEAGDYDRITKLAREAVEGAKL		EDA activity compared to the other EDAs, repeated experiment (FIG. 24) ([2]; 100 μg EDD and 25 μg EDA cell lysate (5 μg of E. coli EDA)): most active of those EDA's tested; EDA activity compared to the other EDAs ([2]; first experiment): higher activity as compared to the other EDA activities; EDA activity relative to the EDA from P. aeruginosa ([2]; first experiment, E. coli slope outside linear range): approximately 16 fold
R. flavefaciens, FD-1 XI: xylose isomerase of Ruminococcus FD1, ZP_06143883.1, SEQ ID NO: 110 (protein, listed as Ruminococcus flavefaciens) MEFFKNISKIPYEGKDSTNPLAFKYYNPDEVIDGKKMRDIMKFALSWWHTMGGDGTDMFGCGTADKTWGENDPAARAKAKVDAAFEIMQKLSIDYFCFHDRDLSPEYGSLKDTNAQLDIVTDYIKAKQAETGLKCLWGTAKCFDHPRFMHGAGTSPSADVFAFSAAQIKKALESTVKLGGTGYVFWGGREGYETLLNTNMGLELDNMARLMKMAVEYGRSIGFKGDFYIEPKPKEPTKHQYDFDTATVLGFLRKYGLDKDFKMNIEANHATLAQHTFQHELCVARTNGAFGSIDANQGDPLLGWDTDQFPTNIYDTTMCMYEVIKAGGFTNGGLNFDAKARRGSFTPEDIFYSYIAGMDAFALGYKAASKLIADGRIDSFISDRYASWSEGIGLDIISGKADMAALEKYALEKGEVTDSISSGRQELLESIVNNVIFNL		slope of the activity at saturating xylose (FIG. 25) ([3]; 500 mM xylose, 100 μg total soluble crude extract): highest activity of the candidates tested; specific activity relative to the native XI control ([3]; xylose between 40 and 500 nM): greater than 2 fold
Escherichia coli: xylose isomerase of this donor organism, expressed in S. cerevisiae (protein, UniProt P00944 1-440, looked up) Xylose isomerase: MQAYFDQLDRVRYEGSKSSNPLAFRHYNPDELVLGKRMEEHLRFAACYWHTFCWNGADMFGVGAFNRPWQQPGEALALAKRKADVAFEFFHKLHVPFYCFHDVDVSPEGASLKEYINNFAQMVDVLAGKQEESGVKLLWGTANCFTNPRYGAGAATNPDPEVFSWAATQVVTAMEATHKLGGENYVLWGGREGYETLLNTDLRQEREQLGRFMQMVVEHKHKIGFQGTLLIEPKPQEPTKHQYDYDAATVYGFLKQFGLEKEIKLNIEANHATLAGHSFHHEIATAIALGLFGSVDANRGDAQLGWDTDQFPNSVEENALVMYEILKAGGFTTGGLNFDAKVRRQSTDKYDLFYGHIGAMDTMALALKIAARMIEDGELDKRIAQRYSGWNSELGQQILKGQMSLADLAKYAQEHHLSPVHQSGRQEQLENLVNHYLFDK	No	
Staphylococcus xylosus: xylose isomerase of this donor organism, expressed in S. cerevisiae (protein, UniProt P27157 1-439, looked up) Xylose isomerase: MSYFDINKVNYEGPKSNNAFSFKYYNPEEKLGNHSMSELLRFSVAYWHTFTADLSDPFGVGVAERDWDSLDEMEKAKARVEAIFEFMEKTRIDYFCFHDVDISPEGASLKESNENLDIIVELIKEKMDQTGKKLLWNTTNNFTHERFVHGAATSSNAEVFAYAAAKVKKSLEIAKKLGSENFVFWGGREGYESLLNTNMKLELDNLATFFKMAKSYADEIGYTGQFLIEPKPKEPTTHQYDTDVATAHAFLQKYDLDKDFKFNIEANHATLAGHTFQHELRYARDNNMLGSVDANQGHPLLGWDTDESTDVYDTTLAMYEILKNGGLAPGGLNFDAKPRRTSFKQEDLILTHIAGMDTFALGLRVAYKMIEDNFFENIMDEKYKSFNEGIGKKIVEGETSLKELEDYAFNINTINNTSDHLEVIKSQINQYILNINNKD	No	
Bacillus subtilis: xylose isomerase of this donor organism, expressed in S. cerevisiae (protein, UniProt P0CI80 1-445, looked up, expressed in S. cerevisiae) Xylose isomerase: MAQSHSSSINYFGSANKVVYEGKDSTNPLAFKYYNPQEVIGGKTLKEHLRFSIAYWHTFTADGTDVFGAATMQRPWDHYKGMDLAKMRVEAAFEMFEKLDAPFFAFHDRDIAPEGSTLKETNQNLDMIMGMIKDYMRNSGVKLLWNTANMFTNPRFVHGAATSCNADVFAYAAAQVKKGLETAKELGAENYVFWGGREGYETLLNTDLKFELDNLARFMHMAVDYAKEIGYTGQFLIEPKPKEPTTHQYDTDAATTIAFLKQYGLDNHFKLNLEANHATLAGHTFEHELRMARVHGLLGSVDANQGHPLLGWDTDEFPTDLYSTTLAMYEILQNGGLGSGGLNFDAKVRRSSFEPDDLIYAHIAGMDAFARGLKVAHKLIEDRVFEDVIQHRYRSFTEGIGLEIIEGRANFHTLEQYALNHKSIKNESGRQEKLKAILNQYILEV	No	
Clostridium thermosulfurogenes: xylose isomerase of this donor organism, expressed in S. cerevisiae (protein, UniProt P19148 1-439, looked up) Xylose isomerase: MNKYFENVSKIKYEGPKSNNPYSFKFYNPEEVIDGKTMEEHLRFSIAYWHTFTADGTDQFGKATMQRPWNHYTDPMDIAKARVEAAFEFFDKINAPYFCFHDRDIAPEGDTLRETNKNLDTIVAMIKDYLKTSKTKVLWGTANLFSNPRFVHGASTSCNADVFAYSAAQVKKALEITKELGGENYVFWGGREGYETLLNTDMEFELDNFARFLHMAVDYAKEIGFEGQFLIEPKPKEPTKHQYDFDVANVLAFLRKYDLDKYFKVNIEANHATLAFHDFQHELRYARINGVLGSIDANTGDMLLGWDTDQFPTDIRMTTLAMYEVIKMGGFDKGGLNFDAKVRRASFEPEDLFLGHIAGMDAFAKGFKVAYKLVKDRVFDKFIEERYASYKDGIGADIVSGKADFRSLEKYALERSQIVNKSGRQELLESILNQYLFAE	No	
Bacillus licheniformis: xylose isomerase of this donor organism, expressed in S. cerevisiae (protein, UniProt P77832 1-448, looked up) Xylose isomerase: MFFRNIGMIEYEGADSENPYAFKYYNPDEFVGGKTMKEHLRFAVAYWHTFDADGKDPFGDGTMFRAWNRLTHPLDKAKARAEAAFEFFEKLGVPYFCFHDVDIVDEGATLRETFTYLDQMSSFLKEMMETSHVQLLWNTANMFTHPRYVHGAATSCNADVYAYAAAKVKKGLDIAKELGAENYVFWGGREGYETLLNTDMKLELENLSSFYRMAVEYAREIGFDGQFLIEPKPKEPTKHQYDFDAATTIAFLETYGLKDHFKLNLEANHATLAGHTFEHELRVAALHDMLGSIDANQGDLLLGWDTDEFPTDLYSAVLAMYEILKAGGFKTGGINFDAKVRRPSFADEDLFHAHIAGMDTYAVGLKVASRLLEDKALDQVIEERYESYTKGIGLEIKEGRTDLKKLAAYALENDHIENQSGRQERLKATVNRYLLNALREAPAGKETH	No	
Burkholderia xenovorans: xylose isomerase of this donor organism, expressed in S. cerevisiae (protein, UniProt Q13RB8 1-440, looked up) Xylose isomerase: MSYFEHIPEIRYEGPQSDNPLAYRHYDKSKKVLGKTLEEHLRIAVCYWHTFVWPGVDIFGQGTFRRPWQQAGDAMERARQKADSAFEFFSKLGTPYYTFHDTDVSPEGSSLKEYSENFLRITDYLARKQEDTGIKLLWGTANLFSHPRYAAGAATSPDPEVFAFAATQVRHALDATQRLGGDNYVLWGGREGYDTLLNTDLMRERDQLARFLHMVVDHAHKIGFKGSLLIEPKPQEPTKHQYDYDVATVHGFLLQHGLEKEIRVNIEANHATLAGHSFHHEIATAYALGIFGSVDANRGDPQNGWDTDQFPNSVEELTLAFYEILKHGGFTTGGMNFDSKVRRQSVDPEDLFYGHIGAIDNLALAVERAAVLIENDRLDQFKRQRYAGWDADFGRKILSGDYSLSTLATDALARGLNPQHASGHQELMENIVNQAIYSGR	No	
